Legend:
[1] = molecular target: T1, FcγRIIb extracellular domain with C-terminal His tag (human, UniProt P31994 43-217); experiment: SPR (Biacore), relative binding
T1 construct: extracellular domain; also called FcgRIIb; 2b
T1 sequence (looked up): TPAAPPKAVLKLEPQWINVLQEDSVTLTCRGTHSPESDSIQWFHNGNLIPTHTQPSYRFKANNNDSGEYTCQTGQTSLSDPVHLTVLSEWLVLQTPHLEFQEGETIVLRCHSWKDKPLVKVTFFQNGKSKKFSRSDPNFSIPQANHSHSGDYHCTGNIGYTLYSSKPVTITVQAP
Experimental: Analysis of interaction between objective antibody and the FcγR was carried out using Biacore T100 (GE Healthcare). HBS-EP+ (GE Healthcare) was used as the running buffer, and the measurement temperature was set to 25° C. Chips produced by immobilizing the antigen peptide by the amine coupling method to a Series S Sencor Chip CM5 (GE Healthcare), or alternatively, chips produced by allowing preliminarily biotinylated antigen peptides to interact with and immobilize onto a Series S Sensor Chip SA (certified) (GE Healthcare) were used. Antibodies of interest were captured onto an antigen peptide-immobilized chip, and allowed to interact to each FcγR diluted with running buffer. To regenerate and repeatedly use the chip, the antibodies captured on the chip were washed off by reacting 10 mM glycine-HCl, pH 1.5.

[2] = molecular target: T2, FcγRIIa R (human, UniProt P12318 34-217); experiment: SPR (Biacore), captured antibody, FcγR as analyte; relative binding activity
T2 construct: extracellular domain; also called FcgRIIa R type; 2aR
T2 sequence (looked up): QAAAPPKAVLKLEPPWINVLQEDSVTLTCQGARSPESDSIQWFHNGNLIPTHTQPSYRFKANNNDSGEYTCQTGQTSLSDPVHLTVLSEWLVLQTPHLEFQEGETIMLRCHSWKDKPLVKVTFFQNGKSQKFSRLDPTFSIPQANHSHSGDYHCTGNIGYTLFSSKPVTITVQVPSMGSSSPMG

B1: GpH7-B3 variant G237_18N/GpL16-k0 (antibody, human IgG1, kappa)
heavy: not shown
light: DIVMTQSPLSLPVTPGEPASISCQASESLVHSNRNTYLHWYLQKPGQSPQLLIYKVSNRFSGVPDRFSGSGSGTDFTLKISRVEAEDVGVYYCSQNTHVPPTFGQGTKVEIERTVAAPSVFIFPPSDEQLKSGTASVVCLLNNFYPREAKVQWKVDNALQSGNSQESVTEQDSKDSTYSLSSTLTLSKADYEKHKVYACEVTHQGLSSPVTKSFNRGEC
notes: also called Ho Ab G237_18N
**Q.** With B1 as the binder, how does the Ho/Con_2b [1] read?
**A.** 63.9 % of HoCon Ab GpH7-B3/GpL16-k0

B2: GpH7-B3 variant L235_15Y/GpL16-k0 (antibody, human IgG1, kappa)
heavy: not shown
light: B1 light
notes: also called Ho Ab L235_15Y
**Q.** For B2, which Ho/Con_2b [1] is on record?
**A.** 127 % of HoCon Ab GpH7-B3/GpL16-k0

B3: GpH7-B3 variant P238_16H/GpL16-k0 (antibody, human IgG1, kappa)
heavy: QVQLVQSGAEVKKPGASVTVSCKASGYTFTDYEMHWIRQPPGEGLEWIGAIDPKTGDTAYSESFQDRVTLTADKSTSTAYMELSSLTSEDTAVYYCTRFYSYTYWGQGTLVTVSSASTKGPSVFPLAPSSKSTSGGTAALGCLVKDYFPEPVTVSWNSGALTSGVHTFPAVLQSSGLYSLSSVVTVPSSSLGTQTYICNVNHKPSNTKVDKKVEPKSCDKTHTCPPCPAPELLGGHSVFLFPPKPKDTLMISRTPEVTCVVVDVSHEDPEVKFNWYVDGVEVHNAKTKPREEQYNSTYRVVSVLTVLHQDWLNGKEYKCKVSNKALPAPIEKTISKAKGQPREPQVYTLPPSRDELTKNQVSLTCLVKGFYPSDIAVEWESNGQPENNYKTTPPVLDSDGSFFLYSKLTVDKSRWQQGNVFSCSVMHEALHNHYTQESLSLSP
light: B1 light
notes: also called Ho Ab P238_16H
**Q.** B3 was tested. Which Ho/Con_2b [1] did it give?
**A.** 18.8 % of HoCon Ab GpH7-B3/GpL16-k0

B4: GpH7-B3 variant N325_01G/GpL16-k0 (antibody, human IgG1, kappa)
heavy: not shown
light: B1 light
notes: also called Ho Ab N325_01G
**Q.** B4 was tested. Which Ho/Con_2b [1] did it give?
**A.** 20.2 % of HoCon Ab GpH7-B3/GpL16-k0

B5: GpH7-B3 variant P238_03V/GpL16-k0 (antibody, human IgG1, kappa)
heavy: not shown
light: B1 light
notes: also called Ho Ab P238_03V
**Q.** With B5 as the binder, how does the Ho/Con_2b [1] read?
**A.** 96.6 % of HoCon Ab GpH7-B3/GpL16-k0

B6: GpH7-B3 variant K326_07I/GpL16-k0 (antibody, human IgG1, kappa)
heavy: not shown
light: B1 light
notes: also called Ho Ab K326_07I
**Q.** B6 was tested. Which Ho/Con_2b [1] did it give?
**A.** 170 % of HoCon Ab GpH7-B3/GpL16-k0

B7: GpH7-B3 variant N325_06M/GpL16-k0 (antibody, human IgG1, kappa)
heavy: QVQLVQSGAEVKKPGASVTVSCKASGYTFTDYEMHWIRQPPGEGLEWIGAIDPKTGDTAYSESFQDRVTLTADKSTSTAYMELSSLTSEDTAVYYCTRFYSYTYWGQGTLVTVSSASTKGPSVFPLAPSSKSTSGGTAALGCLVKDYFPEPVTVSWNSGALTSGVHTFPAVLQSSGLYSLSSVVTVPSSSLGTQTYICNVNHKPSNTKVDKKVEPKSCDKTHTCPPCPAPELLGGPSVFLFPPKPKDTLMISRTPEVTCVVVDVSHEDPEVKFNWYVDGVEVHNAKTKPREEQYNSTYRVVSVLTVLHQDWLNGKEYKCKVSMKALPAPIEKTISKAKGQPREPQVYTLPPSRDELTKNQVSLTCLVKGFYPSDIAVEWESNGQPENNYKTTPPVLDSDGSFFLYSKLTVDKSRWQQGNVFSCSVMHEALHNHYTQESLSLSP
light: B1 light
notes: also called Ho Ab N325_06M
**Q.** B7 was tested. Which Ho/Con_2b [1] did it give?
**A.** 159 % of HoCon Ab GpH7-B3/GpL16-k0

B8: GpH7-B3 variant N325_08L/GpL16-k0 (antibody, human IgG1, kappa)
heavy: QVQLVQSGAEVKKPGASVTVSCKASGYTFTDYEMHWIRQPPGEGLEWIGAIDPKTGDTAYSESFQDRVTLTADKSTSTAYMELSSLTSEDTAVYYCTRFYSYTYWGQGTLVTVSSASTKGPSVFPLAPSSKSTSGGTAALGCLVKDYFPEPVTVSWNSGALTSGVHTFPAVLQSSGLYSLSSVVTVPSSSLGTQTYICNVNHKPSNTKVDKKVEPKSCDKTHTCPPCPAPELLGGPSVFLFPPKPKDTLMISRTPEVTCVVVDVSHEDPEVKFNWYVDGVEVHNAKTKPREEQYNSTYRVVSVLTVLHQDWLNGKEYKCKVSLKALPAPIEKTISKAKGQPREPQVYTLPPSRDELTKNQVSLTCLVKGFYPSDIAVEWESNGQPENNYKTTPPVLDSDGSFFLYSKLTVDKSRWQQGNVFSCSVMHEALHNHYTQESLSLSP
light: B1 light
notes: also called Ho Ab N325_08L
**Q.** B8 was tested. Which Ho/Con_2b [1] did it give?
**A.** 106 % of HoCon Ab GpH7-B3/GpL16-k0

B9: GpH7-A5/GpH7-B3 variant P331_03V/GpL16-k0 (antibody, human IgG1, kappa)
heavy 1: not shown
heavy 2: not shown
light: B1 light
notes: also called He Ab P331_03V
**Q.** Which He/Con_2aR [2] does the source give for B9 here?
**A.** 114 % (GpH7-A5/GpH7-B3/GpL16-k0 = 100)

B10: GpH7-B3 variant P238_04F/GpL16-k0 (antibody, human IgG1, kappa)
heavy: not shown
light: B1 light
notes: also called Ho Ab P238_04F
**Q.** Which Ho/Con_2b [1] does the source give for B10 here?
**A.** 209 % of HoCon Ab GpH7-B3/GpL16-k0

B11: GpH7-B3 variant L235_20W/GpL16-k0 (antibody, human IgG1, kappa)
heavy: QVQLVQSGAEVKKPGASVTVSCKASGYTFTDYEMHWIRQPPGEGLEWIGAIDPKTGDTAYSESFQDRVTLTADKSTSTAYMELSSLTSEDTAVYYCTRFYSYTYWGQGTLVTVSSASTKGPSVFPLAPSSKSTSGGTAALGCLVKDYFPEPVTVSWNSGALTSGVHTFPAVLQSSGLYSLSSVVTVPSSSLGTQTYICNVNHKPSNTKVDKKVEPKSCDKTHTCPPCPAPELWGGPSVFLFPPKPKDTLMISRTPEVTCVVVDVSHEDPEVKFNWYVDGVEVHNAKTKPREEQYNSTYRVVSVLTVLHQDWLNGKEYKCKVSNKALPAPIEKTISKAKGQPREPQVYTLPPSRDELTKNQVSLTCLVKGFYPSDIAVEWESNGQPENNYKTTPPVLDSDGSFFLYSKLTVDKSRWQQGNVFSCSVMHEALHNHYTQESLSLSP
light: B1 light
notes: also called Ho Ab L235_20W
**Q.** With B11 as the binder, how does the Ho/Con_2b [1] read?
**A.** 116 % of HoCon Ab GpH7-B3/GpL16-k0

B12: GpH7-B3 variant N325_13S/GpL16-k0 (antibody, human IgG1, kappa)
heavy: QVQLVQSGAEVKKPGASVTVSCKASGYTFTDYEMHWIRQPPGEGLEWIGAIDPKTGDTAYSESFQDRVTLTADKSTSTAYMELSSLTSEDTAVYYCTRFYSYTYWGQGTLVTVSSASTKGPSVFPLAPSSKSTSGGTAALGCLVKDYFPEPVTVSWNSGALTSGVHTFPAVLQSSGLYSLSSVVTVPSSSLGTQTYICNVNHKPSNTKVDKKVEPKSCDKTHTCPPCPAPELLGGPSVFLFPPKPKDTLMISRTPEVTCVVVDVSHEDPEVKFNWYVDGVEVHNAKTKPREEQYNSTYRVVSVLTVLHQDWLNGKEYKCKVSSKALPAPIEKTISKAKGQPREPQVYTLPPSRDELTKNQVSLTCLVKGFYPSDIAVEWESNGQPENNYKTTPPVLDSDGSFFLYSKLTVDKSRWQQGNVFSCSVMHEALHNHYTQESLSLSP
light: B1 light
notes: also called Ho Ab N325_13S
**Q.** B12 was tested. Which Ho/Con_2b [1] did it give?
**A.** 159 % of HoCon Ab GpH7-B3/GpL16-k0

B13: GpH7-B3 variant G237_04F/GpL16-k0 (antibody, human IgG1, kappa)
heavy: not shown
light: B1 light
notes: also called Ho Ab G237_04F
**Q.** How did the Ho/Con_2b [1] turn out when B13 was run?
**A.** 140 % of HoCon Ab GpH7-B3/GpL16-k0

B14: GpH7-B3 variant L328_09D/GpL16-k0 (antibody, human IgG1, kappa)
heavy: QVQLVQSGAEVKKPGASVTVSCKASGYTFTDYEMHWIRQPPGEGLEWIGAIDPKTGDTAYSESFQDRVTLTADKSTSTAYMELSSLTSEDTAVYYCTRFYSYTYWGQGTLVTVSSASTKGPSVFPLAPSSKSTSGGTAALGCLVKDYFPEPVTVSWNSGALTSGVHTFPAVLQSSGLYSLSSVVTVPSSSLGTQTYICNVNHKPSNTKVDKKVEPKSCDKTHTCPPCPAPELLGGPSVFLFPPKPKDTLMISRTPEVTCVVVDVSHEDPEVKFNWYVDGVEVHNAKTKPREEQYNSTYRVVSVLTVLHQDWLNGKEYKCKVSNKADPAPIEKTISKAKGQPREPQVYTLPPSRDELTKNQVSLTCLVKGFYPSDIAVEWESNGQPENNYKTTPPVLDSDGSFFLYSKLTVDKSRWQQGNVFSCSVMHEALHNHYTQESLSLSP
light: B1 light
notes: also called Ho Ab L328_09D
**Q.** How did the Ho/Con_2b [1] turn out when B14 was run?
**A.** 159 % of HoCon Ab GpH7-B3/GpL16-k0

B15: GpH7-B3 variant H268_03V/GpL16-k0 (antibody, human IgG1, kappa)
heavy: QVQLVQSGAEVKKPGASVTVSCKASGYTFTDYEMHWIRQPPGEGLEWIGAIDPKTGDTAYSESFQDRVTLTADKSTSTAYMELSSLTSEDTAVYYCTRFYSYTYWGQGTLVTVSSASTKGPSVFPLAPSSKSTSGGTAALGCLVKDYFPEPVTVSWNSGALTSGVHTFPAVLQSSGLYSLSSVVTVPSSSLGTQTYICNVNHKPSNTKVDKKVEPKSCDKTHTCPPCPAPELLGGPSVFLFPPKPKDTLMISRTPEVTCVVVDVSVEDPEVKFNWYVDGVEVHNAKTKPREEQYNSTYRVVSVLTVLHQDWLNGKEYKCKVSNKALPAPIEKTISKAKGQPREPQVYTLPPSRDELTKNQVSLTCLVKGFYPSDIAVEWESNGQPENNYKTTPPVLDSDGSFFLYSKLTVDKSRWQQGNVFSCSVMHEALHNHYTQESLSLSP
light: B1 light
notes: also called Ho Ab H268_03V
**Q.** For B15, which Ho/Con_2b [1] is on record?
**A.** 109 % of HoCon Ab GpH7-B3/GpL16-k0

B16: GpH7-B3 variant N325_07I/GpL16-k0 (antibody, human IgG1, kappa)
heavy: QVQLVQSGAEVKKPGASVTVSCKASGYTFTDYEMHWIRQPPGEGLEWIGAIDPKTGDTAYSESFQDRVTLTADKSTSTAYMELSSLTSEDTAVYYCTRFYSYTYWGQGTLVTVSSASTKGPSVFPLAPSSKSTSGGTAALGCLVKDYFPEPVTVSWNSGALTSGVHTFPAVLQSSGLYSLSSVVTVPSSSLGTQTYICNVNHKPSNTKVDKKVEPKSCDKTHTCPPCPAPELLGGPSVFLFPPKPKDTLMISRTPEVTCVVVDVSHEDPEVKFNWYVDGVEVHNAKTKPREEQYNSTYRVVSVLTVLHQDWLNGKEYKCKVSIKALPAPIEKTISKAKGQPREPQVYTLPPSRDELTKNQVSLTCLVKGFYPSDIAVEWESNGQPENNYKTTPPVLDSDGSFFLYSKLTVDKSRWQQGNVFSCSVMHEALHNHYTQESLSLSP
light: B1 light
notes: also called Ho Ab N325_07I
**Q.** With B16 as the binder, how does the Ho/Con_2b [1] read?
**A.** 88.2 % of HoCon Ab GpH7-B3/GpL16-k0

B17: GpH7-B3 variant P238_09D/GpL16-k0 (antibody, human IgG1, kappa)
heavy: not shown
light: B1 light
notes: also called Ho Ab P238_09D
**Q.** For B17, which Ho/Con_2b [1] is on record?
**A.** 207 % of HoCon Ab GpH7-B3/GpL16-k0

B18: GpH7-B3 variant L235_09D/GpL16-k0 (antibody, human IgG1, kappa)
heavy: not shown
light: B1 light
notes: also called Ho Ab L235_09D
**Q.** For B18, which Ho/Con_2b [1] is on record?
**A.** 78.7 % of HoCon Ab GpH7-B3/GpL16-k0

B19: GpH7-B3 variant L328_13S/GpL16-k0 (antibody, human IgG1, kappa)
heavy: not shown
light: B1 light
notes: also called Ho Ab L328_13S
**Q.** B19 was tested. Which Ho/Con_2b [1] did it give?
**A.** 147 % of HoCon Ab GpH7-B3/GpL16-k0

B20: GpH7-B3 variant P238_06M/GpL16-k0 (antibody, human IgG1, kappa)
heavy: not shown
light: B1 light
notes: also called Ho Ab P238_06M
**Q.** Which Ho/Con_2b [1] does the source give for B20 here?
**A.** 97.1 % of HoCon Ab GpH7-B3/GpL16-k0

B21: GpH7-B3 variant L328_10E/GpL16-k0 (antibody, human IgG1, kappa)
heavy: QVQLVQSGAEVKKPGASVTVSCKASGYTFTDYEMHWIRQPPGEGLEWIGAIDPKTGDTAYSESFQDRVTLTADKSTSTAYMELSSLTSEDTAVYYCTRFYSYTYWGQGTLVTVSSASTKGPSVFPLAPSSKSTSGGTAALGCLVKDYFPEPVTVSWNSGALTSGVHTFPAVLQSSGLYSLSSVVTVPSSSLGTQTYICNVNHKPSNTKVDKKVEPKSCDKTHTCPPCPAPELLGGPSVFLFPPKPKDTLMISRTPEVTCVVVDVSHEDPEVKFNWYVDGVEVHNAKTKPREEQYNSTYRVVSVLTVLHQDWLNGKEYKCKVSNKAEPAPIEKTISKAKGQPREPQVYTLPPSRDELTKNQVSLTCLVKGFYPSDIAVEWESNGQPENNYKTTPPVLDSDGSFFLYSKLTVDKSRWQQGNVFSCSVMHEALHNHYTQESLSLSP
light: B1 light
notes: also called Ho Ab L328_10E
**Q.** B21 was tested. Which Ho/Con_2b [1] did it give?
**A.** 146 % of HoCon Ab GpH7-B3/GpL16-k0

B22: GpH7-B3 variant H268_15Y/GpL16-k0 (antibody, human IgG1, kappa)
heavy: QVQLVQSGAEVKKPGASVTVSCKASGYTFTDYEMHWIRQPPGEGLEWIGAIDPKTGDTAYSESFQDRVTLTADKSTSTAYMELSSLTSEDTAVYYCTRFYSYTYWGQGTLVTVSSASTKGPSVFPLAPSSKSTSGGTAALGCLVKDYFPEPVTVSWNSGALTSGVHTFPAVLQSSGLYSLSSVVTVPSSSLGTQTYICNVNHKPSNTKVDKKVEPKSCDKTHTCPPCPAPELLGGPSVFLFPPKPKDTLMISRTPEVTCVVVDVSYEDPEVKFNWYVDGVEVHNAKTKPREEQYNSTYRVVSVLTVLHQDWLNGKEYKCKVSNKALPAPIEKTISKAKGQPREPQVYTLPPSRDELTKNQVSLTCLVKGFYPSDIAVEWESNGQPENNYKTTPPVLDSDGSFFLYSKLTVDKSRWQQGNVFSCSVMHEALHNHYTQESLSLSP
light: B1 light
notes: also called Ho Ab H268_15Y
**Q.** Which Ho/Con_2b [1] does the source give for B22 here?
**A.** 104 % of HoCon Ab GpH7-B3/GpL16-k0

B23: GpH7-B3 variant N325_09D/GpL16-k0 (antibody, human IgG1, kappa)
heavy: not shown
light: B1 light
notes: also called Ho Ab N325_09D
**Q.** B23 was tested. Which Ho/Con_2b [1] did it give?
**A.** 77 % of HoCon Ab GpH7-B3/GpL16-k0

B24: GpH7-B3 variant P238_10E/GpL16-k0 (antibody, human IgG1, kappa)
heavy: not shown
light: B1 light
notes: also called Ho Ab P238_10E
**Q.** Which Ho/Con_2b [1] does the source give for B24 here?
**A.** 97.9 % of HoCon Ab GpH7-B3/GpL16-k0

B25: GpH7-B3 variant G237_08L/GpL16-k0 (antibody, human IgG1, kappa)
heavy: not shown
light: B1 light
notes: also called Ho Ab G237_08L
**Q.** B25 was tested. Which Ho/Con_2b [1] did it give?
**A.** 49.4 % of HoCon Ab GpH7-B3/GpL16-k0

B26: GpH7-B3 variant P238_15Y/GpL16-k0 (antibody, human IgG1, kappa)
heavy: not shown
light: B1 light
notes: also called Ho Ab P238_15Y
**Q.** How did the Ho/Con_2b [1] turn out when B26 was run?
**A.** 114 % of HoCon Ab GpH7-B3/GpL16-k0

B27: GpH7-B3 variant K326_20W/GpL16-k0 (antibody, human IgG1, kappa)
heavy: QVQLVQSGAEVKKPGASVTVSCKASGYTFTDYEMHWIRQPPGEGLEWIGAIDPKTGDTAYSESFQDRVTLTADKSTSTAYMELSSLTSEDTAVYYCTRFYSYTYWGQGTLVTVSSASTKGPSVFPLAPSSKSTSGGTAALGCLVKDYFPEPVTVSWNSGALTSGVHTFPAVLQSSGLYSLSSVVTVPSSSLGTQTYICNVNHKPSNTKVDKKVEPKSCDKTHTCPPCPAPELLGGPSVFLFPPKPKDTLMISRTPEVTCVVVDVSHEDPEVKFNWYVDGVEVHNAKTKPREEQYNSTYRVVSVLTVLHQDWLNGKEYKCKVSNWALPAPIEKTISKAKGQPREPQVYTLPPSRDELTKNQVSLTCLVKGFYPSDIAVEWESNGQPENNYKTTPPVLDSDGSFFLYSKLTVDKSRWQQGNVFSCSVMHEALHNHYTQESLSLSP
light: B1 light
notes: also called Ho Ab K326_20W
**Q.** Which Ho/Con_2b [1] does the source give for B27 here?
**A.** 132 % of HoCon Ab GpH7-B3/GpL16-k0

— patent US20150344570A1 (published 2015)
